This passage reports Ki, MC4R cAMP EC50 and MC1R cAMP EC50 results from patent US20200223889A1, “Bicyclic Compounds Capable of Binding to Melanocortin 4 Receptor” (Novo Nordisk A/S, priority 2017, published 2020).

Usually Ki stands for the dissociation constant of the complex between target and ligand, obtained from inhibition or displacement. Low readings indicate higher affinity, high ones lower affinity.

Positions of bridges follow the written chain, without caps; N, C: chain ends. Non-standard residues stand in square brackets, D forms with d. Hyp = O=C(O)[C@@H]1C[C@@H](O)CN1; Dab = NCC[C@H](N)C(=O)O; Aib = CC(C)(N)C(=O)O

Test [1] addresses human melanocortin 4 receptor (human), P32245. As to the kind of experiment: competition with 125-NDP-α-MSH, BHK human MC4R membranes.
The target is the same in test [2]. As to the kind of experiment: cell-based or functional assay.
Test [3] has as its target human melanocortin 1 receptor (human), Q01726. As to the kind of experiment: cell-based or functional assay.
Test [4] addresses human melanocortin 4 receptor (human) (UniProt P32245). As to the kind of experiment: cell-based or functional assay.
The target is the same in test [5]. As to the kind of experiment: competition with 125-NDP-α-MSH, BHK human MC4R membranes.

Chain of human melanocortin 4 receptor (human), P32245 (P32245 whole entry): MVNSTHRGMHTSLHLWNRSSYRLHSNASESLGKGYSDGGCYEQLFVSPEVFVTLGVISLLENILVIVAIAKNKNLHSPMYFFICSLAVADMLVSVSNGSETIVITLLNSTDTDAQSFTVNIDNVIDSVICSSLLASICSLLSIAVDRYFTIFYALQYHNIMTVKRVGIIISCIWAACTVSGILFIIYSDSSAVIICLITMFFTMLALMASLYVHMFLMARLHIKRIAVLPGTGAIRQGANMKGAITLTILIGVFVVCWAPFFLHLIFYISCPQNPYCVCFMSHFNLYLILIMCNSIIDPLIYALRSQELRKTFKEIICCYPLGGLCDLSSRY
Chain of human melanocortin 4 receptor (human) (P32245 whole entry): as above
Chain of human melanocortin 1 receptor (human), Q01726 (Q01726 whole entry): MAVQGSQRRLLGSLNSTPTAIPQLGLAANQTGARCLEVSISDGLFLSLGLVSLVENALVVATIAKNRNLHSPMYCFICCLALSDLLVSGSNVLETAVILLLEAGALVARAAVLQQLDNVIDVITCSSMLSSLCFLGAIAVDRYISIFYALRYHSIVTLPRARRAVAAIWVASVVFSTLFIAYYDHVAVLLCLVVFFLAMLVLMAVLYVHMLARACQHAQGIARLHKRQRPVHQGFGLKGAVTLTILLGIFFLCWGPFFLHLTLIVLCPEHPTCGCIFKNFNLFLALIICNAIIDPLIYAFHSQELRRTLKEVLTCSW

In test [1], CAHFRWCAEEAW (modifications not checked) [Chem. 102] yielded a Ki of 10.1 nM. Also, in test [2], the MC4R cAMP EC50 came out at 0.49 nM. Also, the MC1R cAMP EC50 in test [3] is 14.3 nM.
For CAHFRWCAAAAR (modifications not checked) [Chem. 89], in that order: 0.07 nM, 0.02 nM and 0.59 nM.
Take CAHFRWCAHFRW (modifications not checked) [Chem. 56]: the Ki in test [1] came to 1.82 nM. In test [2], the MC4R cAMP EC50 was found to be 0.44 nM. For the same molecule, the MC1R cAMP EC50 in test [3] came to 35.3 nM.
Turning to CAHFRWCAEEEW (modifications not checked) [Chem. 44], the Ki in test [1] is 50.9 nM. In test [2], this molecule had an MC4R cAMP EC50 of 1.53 nM. The molecule further displayed an MC1R cAMP EC50 in test [3] of 31.9 nM.
The like results for CAHFRWCRFFNA (modifications not checked) [Chem. 12] were, in that order, 0.28 nM, 0.07 nM and 3.97 nM.
As for CAHFRWCAKKKR (modifications not checked) [Chem. 59], the Ki in test [1] was determined as 0.01 nM. This molecule also registered an MC4R cAMP EC50 in test [2] of 0.004 nM. In addition, the MC1R cAMP EC50 in test [3] was found to be 0.16 nM.

B1: Chem. 46 (peptide)
peptide: cyclo(C[Aib]H[dF][Dab]WC[Aib]H[dF][Dab]W)
modifications: disulfide 1-7
SMILES: CC1(C)NC(=O)[C@@H]2CSSC[C@H](NC(=O)[C@H](Cc3c[nH]c4ccccc34)NC(=O)[C@H](CCN)NC(=O)[C@@H](Cc3ccccc3)NC(=O)[C@H](Cc3c[nH]cn3)NC1=O)C(=O)NC(C)(C)C(=O)N[C@@H](Cc1c[nH]cn1)C(=O)N[C@H](Cc1ccccc1)C(=O)N[C@@H](CCN)C(=O)N[C@@H](Cc1c[nH]c3ccccc13)C(=O)N2
As for B1, the MC4R cAMP EC50 in test [4] turned out to be 5.65 nM. The same molecule gave a Ki in test [5] of 7.86 nM.

B2: Chem. 86 (peptide)
peptide: cyclo(C[dK]H[dF]HWC[dK]H[dF]HW)
modifications: disulfide 1-7
SMILES: NCCCC[C@H]1NC(=O)[C@@H]2CSSC[C@H](NC(=O)[C@H](Cc3c[nH]c4ccccc34)NC(=O)[C@H](Cc3c[nH]cn3)NC(=O)[C@@H](Cc3ccccc3)NC(=O)[C@H](Cc3c[nH]cn3)NC1=O)C(=O)N[C@H](CCCCN)C(=O)N[C@@H](Cc1c[nH]cn1)C(=O)N[C@H](Cc1ccccc1)C(=O)N[C@@H](Cc1c[nH]cn1)C(=O)N[C@@H](Cc1c[nH]c3ccccc13)C(=O)N2
The molecule B2 had an MC4R cAMP EC50 in test [4] of 14.5 nM. Further, in test [5], the Ki turned out to be 9.6 nM.
For CAHFRWCPPERW (modifications not checked) [Chem. 112], in test [1], the Ki came to 1.21 nM. The same molecule registered an MC4R cAMP EC50 in test [2] of 0.19 nM. The molecule further registered an MC1R cAMP EC50 in test [3] of 30.2 nM.
Turning to CAHFRWCAHFRW (modifications not checked) [Chem. 111], the Ki in test [1] worked out at 0.04 nM. This molecule also yielded an MC4R cAMP EC50 in test [2] of 0.01 nM. In addition, the MC1R cAMP EC50 in test [3] was 0.31 nM.
Regarding CAHFRWCAHFRW (modifications not checked) [Chem. 8], the Ki in test [1] came out at 0.08 nM. This molecule returned an MC4R cAMP EC50 in test [2] of 0.02 nM. In test [3], this molecule came in with an MC1R cAMP EC50 of 1.76 nM.

B3: Chem. 34 (peptide)
peptide: cyclo(C[dV]H[dF]RWC[dV]H[dF]RW)
modifications: disulfide 1-7
SMILES: CC(C)[C@H]1NC(=O)[C@@H]2CSSC[C@H](NC(=O)[C@H](Cc3c[nH]c4ccccc34)NC(=O)[C@H](CCCNC(=N)N)NC(=O)[C@@H](Cc3ccccc3)NC(=O)[C@H](Cc3c[nH]cn3)NC1=O)C(=O)N[C@H](C(C)C)C(=O)N[C@@H](Cc1c[nH]cn1)C(=O)N[C@H](Cc1ccccc1)C(=O)N[C@@H](CCCNC(=N)N)C(=O)N[C@@H](Cc1c[nH]c3ccccc13)C(=O)N2
Molecule B3 yielded an MC4R cAMP EC50 in test [4] of 0.12 nM. This molecule also yielded a Ki in test [5] of 0.88 nM.

B4: Chem. 33 (peptide)
peptide: cyclo(C[dP]H[dF]RWC[dP]H[dF]RW)
modifications: disulfide 1-7
SMILES: N=C(N)NCCC[C@@H]1NC(=O)[C@@H](Cc2ccccc2)NC(=O)[C@H](Cc2c[nH]cn2)NC(=O)[C@H]2CCCN2C(=O)[C@@H]2CSSC[C@H](NC(=O)[C@H](Cc3c[nH]c4ccccc34)NC1=O)C(=O)N1CCC[C@@H]1C(=O)N[C@@H](Cc1c[nH]cn1)C(=O)N[C@H](Cc1ccccc1)C(=O)N[C@@H](CCCNC(=N)N)C(=O)N[C@@H](Cc1c[nH]c3ccccc13)C(=O)N2
Consider B4, for which the MC4R cAMP EC50 in test [4] amounted to 19.8 nM. In addition, the Ki in test [5] worked out at 27.8 nM.
With CAHFRWCKKKR (modifications not checked) [Chem. 101], in test [1], the Ki turned out to be 0.05 nM. Moreover, the MC4R cAMP EC50 in test [2] turned out to be 0.04 nM. The MC1R cAMP EC50 in test [3] stood at 0.19 nM.
The like results for CAHFRWCAAFAW (modifications not checked) [Chem. 11] were, in that order, 0.25 nM, 0.03 nM and 2.17 nM.
For CAHFRWCAYFKW (modifications not checked) [Chem. 80], in that order: 0.16 nM, 0.15 nM and 8.65 nM.
The like results for CAHFRWCRFFNAF (modifications not checked) [Chem. 13] were, in that order, 0.26 nM, 0.1 nM and 6.36 nM.

B5: Chem. 6 (peptide)
peptide: cyclo(CH[dF]RW[dA]CH[dF]RW[dA])
modifications: disulfide 1-7
SMILES: C[C@H]1NC(=O)[C@H](Cc2c[nH]c3ccccc23)NC(=O)[C@H](CCCNC(=N)N)NC(=O)[C@@H](Cc2ccccc2)NC(=O)[C@H](Cc2c[nH]cn2)NC(=O)[C@@H]2CSSC[C@H](NC1=O)C(=O)N[C@@H](Cc1c[nH]cn1)C(=O)N[C@H](Cc1ccccc1)C(=O)N[C@@H](CCCNC(=N)N)C(=O)N[C@@H](Cc1c[nH]c3ccccc13)C(=O)N[C@H](C)C(=O)N2
In test [4], B5 gave an MC4R cAMP EC50 of 0.06 nM. Further, the Ki in test [5] is 0.19 nM.

B6: Chem. 43 (peptide)
peptide: CXHFXWCXHFXW
modifications: Aib 2, 8; D-Phe 4, 10; AGP 5, 11; disulphide Cys1-Cys7; head-to-tail amide Cys1-Trp12
Take B6: the MC4R cAMP EC50 in test [4] was determined as 0.44 nM. Further, the Ki in test [5] was found to be 2.61 nM.

B7: Chem. 38 (peptide)
peptide: cyclo(C[Aib][Hyp][dF]RWC[Aib][Hyp][dF]RW)
modifications: disulfide 1-7
SMILES: CC1(C)NC(=O)[C@@H]2CSSC[C@H](NC(=O)[C@H](Cc3c[nH]c4ccccc34)NC(=O)[C@H](CCCNC(=N)N)NC(=O)[C@@H](Cc3ccccc3)NC(=O)[C@@H]3C[C@@H](O)CN3C1=O)C(=O)NC(C)(C)C(=O)N1C[C@H](O)C[C@H]1C(=O)N[C@H](Cc1ccccc1)C(=O)N[C@@H](CCCNC(=N)N)C(=O)N[C@@H](Cc1c[nH]c3ccccc13)C(=O)N2
In test [4], B7 had an MC4R cAMP EC50 of 4.22 nM. The Ki in test [5] came out at 5.64 nM.
The molecule CAHFRWCAAAAW (modifications not checked) [Chem. 88] came in with a Ki in test [1] of 0.2 nM. In test [2], this molecule displayed an MC4R cAMP EC50 of 0.02 nM. Further, in test [3], the MC1R cAMP EC50 stood at 1.31 nM.

B8: Chem. 41 (peptide)
peptide: CXHFXWCXHFXW
modifications: Aib 2, 8; D-Phe 4, 10; Cit 5, 11; disulphide Cys1-Cys7; head-to-tail amide Cys1-Trp12
As to B8, the MC4R cAMP EC50 in test [4] was determined as 1.34 nM. Moreover, the Ki in test [5] was found to be 5.39 nM.
In test [1], CAHFRWCAAAAR (modifications not checked) [Chem. 90] gave an inhibition constant Ki of 0.11 nM. In test [2], this molecule showed an MC4R cAMP EC50 of 0.01 nM. In addition, in test [3], the MC1R cAMP EC50 is 0.65 nM.
For CAHFRWCAKKKR (modifications not checked) [Chem. 85], in that order: 0.02 nM, 0.01 nM and 0.22 nM.
In turn, CAHFRWCAHFRW (modifications not checked) [Chem. 10] gave an MC1R cAMP EC50 in test [3] of 4.88 nM.
Regarding CAHFRWCAAAAW (modifications not checked) [Chem. 87], the inhibition constant Ki in test [1] stood at 0.17 nM. This molecule also registered an MC4R cAMP EC50 in test [2] of 0.04 nM. Also, the MC1R cAMP EC50 in test [3] came to 1.39 nM.
